Target: the molecule itself
Test: negative-stain transmission electron microscopy

B1: recombinant B. subtilis TasA(28-261), fibre-forming (natural protein, B. subtilis NCIB3610, UniProt P54507 28-261, looked up)
chain: AFNDIKSKDATFASGTLDLSAKENSASVNLSNLKPGDKLTKDFQFENNGSLAIKEVLMALNYGDFKANGGSNTSPEDFLSQFEVTLLTVGKEGGNGYPKNIILDDANLKDLYLMSAKNDAAAAEKIKKQIDPKFLNASGKVNVATIDGKTAPEYDGVPKTPTDFDQVQMEIQFKDDKTKDEKGLMVQNKYQGNSIKLQFSFEATQWNGLTIKKDHTDKDGYVKENEKAHSEDKN
binding result: binds

— article doi:10.1101/188995 (bioRxiv, 2018)
